Data on two molecules can be found in patent US20110177070A1 (EMERGENT PRODUCT DEVELOPMENT SEATLLE, published 2011).

The target in one assay is T1, recombinant human TNF-α (human, UniProt P01375 77-233).
T1 construct: also called rhTNF-α
Put plainly: dual-ligand ELISA: plate-coated HIL-6, Xceptor, 2 ng/ml TNF-α, anti-human TNF-α-biotin. Here is the method:
Added to each well of a 96-well plate was 100 μl human HIL-6 solution (5 μg/ml in PBS, pH 7.2-7.4). The plate was covered, and incubated overnight at 4° C. After washing four times with PBS-T, then 250 μl Blocking buffer was added to each well, the plate was covered, and incubated at room temperature for 2 hours (or at 4° C. overnight). After washing the plate three times with PBS-T, added in duplicate wells to the HIL-6 coated plate was 100 μl/well Xceptor TNFRSF1B::HIL6 samples serially diluted three-fold in Working buffer starting at 300 ng/ml. Negative controls included human gp130-Fc chimera (R&D Systems, Minneapolis, Minn.), Enbrel® (etanercept), and Working buffer only. The plate was covered and incubated at room temperature for 1.5 hours. After washing the plate five times with PBS-T, 100 μl per well recombinant human TNF-α (R&D Systems, Minneapolis, Minn.) to 2 ng/ml in Working buffer was added, the plate was covered, and incubated at room temperature for 1.5 hr. After washing the plate five times with PBS-T, 100 μl per well anti-human TNF-α-biotin (R&D Systems) to 200 ng/ml in Working buffer was added, the plate was covered, and incubated at room temperature for 1.5 hr. […] The absorbance of each well was read at 450 nm.
In general terms: In an ELISA, binding on a coated surface is turned into a signal by an enzyme label.

For assay [1], the target named is Xceptor fusion protein TRU(XT6)-1042. Nature of the assay: sandwich ELISA: Xceptor captured on anti-human IgG-Fc, sIL-6R, anti-human IL-6R-biotin. Here is the method:
Added to each well of a 96-well plate was 100 μl goat anti-human IgG-Fc (ICN Pharmaceuticals, Costa Mesa, Calif.) from a 2 μg/ml solution in PBS, pH 7.2-7.4, The plates were covered, and incubated overnight at 4° C. After washing four times with PBS-T, 250 μl Blocking buffer (PBS-T with 3% BSA or 10% normal goat serum) was added to each well, the plate was covered, and incubated at room temperature for 2 hours (or at 4° C. overnight). After washing the plate three times with PBS-T, added in duplicate wells to the anti-human IgG-Fc coated plate was 100 μl/well Xceptor TNFRSF1B::anti-HIL6 samples, positive control anti-human IL-6R(R&D Systems, Minneapolis, Minn.) and negative controls human IgG or human gp130-Fc chimera (R&D Systems), each serially diluted three-fold in Working buffer starting at 300 ng/ml, the plate was covered, and incubated at room temperature for about 1 to 2 hours. After washing the plate five times with PBS-T, added in duplicate wells was 100 μl/well recombinant human sIL-6R(R&D Systems) from a 75 pM solution in Working buffer, the plate was covered, and incubated at room temperature for about 1 to 2 hours. After washing the plate five times with PBS-T, added 100 μl/well anti-human IL-6R-biotin (R&D Systems) from a 100 ng/ml solution in Working buffer, the plate was covered, and incubated at room temperature for about 1 to 2 hours. After washing the plate five times with PBS-T, 100 μl per well horse radish peroxidase-conjugated streptavidin (Zymed, San Francisco, Calif.) diluted 1:4,000 in Working buffer was added, the plate was covered, and incubated at room temperature for 30 minutes. After washing the plate six times with PBS-T, 100 μl per well 3,3,5,5-tetramentylbenzidine (TMB) substrate solution (Pierce, Rockford, Ill.) was added for about 3 to 5 minutes and then the reaction was stopped with 50 μl Stop buffer (1N H₂SO₄) per well. The absorbance of each well was read at 450 nm.

T1 sequence (P01375 77-233 limits assumed): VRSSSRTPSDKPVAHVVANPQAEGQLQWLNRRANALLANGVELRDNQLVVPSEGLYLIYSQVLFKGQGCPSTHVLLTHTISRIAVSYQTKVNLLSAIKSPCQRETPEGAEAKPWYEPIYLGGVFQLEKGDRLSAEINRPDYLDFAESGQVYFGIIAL

B1: Xceptor fusion protein TRU(XT6)-1006 (Fc fusion)
chain: LPAQVAFTPYAPEPGSTCRLREYYDQTAQMCCSKCSPGQHAKVFCTKTSDTVCDSCEDSTYTQLWNWVPECLSCGSRCSSDQVETQACTREQNRICTCRPGWYCALSKQEGCRLCAPLRKCRPGFGVARPGTETSDVVCKPCAPGTFSNTTSSTDICRPHQICNVVAIPGNASMDAVCTSTSPTRSMAPGAVHLPQPVSTRSQHTQPTPEPSTAPSTSFLLPMGPSPPAEGSTGDTGEPKSSDKTHTCPPCPAPEAAGAPSVFLFPPKPKDTLMISRTPEVTCVVVDVSHEDPEVKFNWYVDGVEVHNAKTKPREEQYNSTYRVVSVLTVLHQDWLNGKAYACAVSNKALPAPIEKTISKAKGQPREPQVYTLPPSRDELTKNQVSLTCLVKGFYPSDIAVEWESNGQPENNYKTTPPVLDSDGSFFLYSKLTVDKSRWQQGNVFSCSVMHEALHNHYTQKSLSLSPGQRHNNSSLNTRTQKARHSPNSEVQLLESGGGLVQPGGSLRLSCAASGFTFSQYNMIWVRQAPGKGLEWVSWISSSGGTEYADSVKGRFTISRDNSKNTLYLQMNSLRAEDTAVYYCAKDRGYGSGSYGAYDAFDIWGQGTMVTVSSGGGGSGGGGSGGGGSQDIQMTQSPSSLSASVGDRVTITCQTSQSIDRYLNWYQQKAGEAPKLLIYAASSLQSGVPSRFSGSGSGTDFTLTISSLQPEDFASYYCQQSYRTPRTFGQGTKVEIK
notes: Xceptor TNFRSF1B::anti-HIL6
Consider B1, for which the binding result with recombinant human TNF-α is “binds”.

B2: recombinant human sIL-6R (receptor)
chain: LAPRRCPAQEVARGVLTSLPGDSVTLTCPGVEPEDNATVHWVLRKPAAGSHPSRWAGMGRRLLLRSVQLHDSGNYSCYRAGRPAGTVHLLVDVPPEEPQLSCFRKSPLSNVVCEWGPRSTPSLTTKAVLLVRKFQNSPAEDFQEPCQYSQESQKFSCQLAVPEGDSSFYIVSMCVASSVGSKFSKTQTFQGCGILQPDPPANITVTAVARNPRWLSVTWQDPHSWNSSFYRLRFELRYRAERSKTFTTWMVKDLQHHCVIHDAWSGLRHVVQLRAQEEFGQGEWSEWSPEAMGTPWTESRSPPAENEVSTPMQALTTNKDDDNILFRDSANATSLPVQD
notes: Bought soluble receptor; also called human soluble IL6R; IL6R alone
Take B2: in assay [1], the binding result is “no binding (tested: Xceptor from 300 ng/ml; sIL-6R 75 pM)”.
